Results as given in patent US20060002925A1 (ZymoGenetics, published 2006).

How the values were obtained:
[1] = molecular target: T1, human IL-17 receptor (human, UniProt Q96F46 33-320); experiment: cell-based or functional assay
T1 sequence: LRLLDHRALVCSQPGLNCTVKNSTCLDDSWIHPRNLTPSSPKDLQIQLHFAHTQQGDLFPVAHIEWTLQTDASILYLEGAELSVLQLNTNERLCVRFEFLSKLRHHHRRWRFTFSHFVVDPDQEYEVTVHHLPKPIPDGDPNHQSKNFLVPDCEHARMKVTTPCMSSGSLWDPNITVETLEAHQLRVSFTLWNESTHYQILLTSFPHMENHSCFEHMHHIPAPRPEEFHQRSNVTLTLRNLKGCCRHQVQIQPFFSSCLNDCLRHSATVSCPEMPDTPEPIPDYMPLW

[2] = molecular target: T2, human ZcytoR14 (human, UniProt Q8NAC3 21-791); experiment: cell-based or functional assay
T2 sequence: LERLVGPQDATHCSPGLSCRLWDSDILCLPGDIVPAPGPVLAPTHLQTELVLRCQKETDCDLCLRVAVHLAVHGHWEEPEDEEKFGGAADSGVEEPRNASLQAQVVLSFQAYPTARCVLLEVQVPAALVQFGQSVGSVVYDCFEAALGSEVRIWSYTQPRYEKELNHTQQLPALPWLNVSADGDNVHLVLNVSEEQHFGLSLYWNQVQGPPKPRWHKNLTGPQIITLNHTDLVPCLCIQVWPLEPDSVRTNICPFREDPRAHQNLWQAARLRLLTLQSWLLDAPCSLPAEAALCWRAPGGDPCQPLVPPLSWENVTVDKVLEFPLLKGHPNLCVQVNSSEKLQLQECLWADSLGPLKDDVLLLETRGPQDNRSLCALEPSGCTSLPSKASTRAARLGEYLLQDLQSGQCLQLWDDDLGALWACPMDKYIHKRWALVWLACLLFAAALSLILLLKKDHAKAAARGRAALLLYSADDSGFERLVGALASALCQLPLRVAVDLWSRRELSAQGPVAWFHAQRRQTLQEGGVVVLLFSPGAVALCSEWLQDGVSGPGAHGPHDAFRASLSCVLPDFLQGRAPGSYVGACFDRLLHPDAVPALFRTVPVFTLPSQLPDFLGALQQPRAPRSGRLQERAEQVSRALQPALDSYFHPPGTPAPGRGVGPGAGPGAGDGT

B1: human IL-17F (ligand)
chain: RKIPKVGHTFFQKPESCPPVPGGSMKLDIGIINENQRVSMSRNIESRSTSPWNYTVTWDPNRYPSEVVQAQCRNLGCINAQGKEDISMNSVPIQQETLVVRRKHQGCSVSFQLEKVLVTVGCTCVTPVIHHVQ
modifications: biotinylated (Example 10) or 125I-radiolabeled by the iodobead method (Example 11) when used as tracer; unlabeled as cold competitor
EC50 of ap1/nfkb luciferase activation in nih3t3/kz142.8/IL-17R cells [1]: 12.4 ng/mL
EC50 of ap1/nfkb luciferase activation in the hIL-17RCX1 recombinant line [2]: 0.61 ng/mL
fold more potent EC50 in the recombinant line against the parental line [2]: 17 fold
